Target: the molecule itself
Assay: negative-stain electron microscopy; purified SynPOR with PG lipids and either Chlide + NADPH or Pchlide + NADP+; search for large oligomers; 37 mM sodium phosphate pH 7.1, 225 mM NaCl, 150 mM imidazole, 5 mM beta-mercaptoethanol, 25% glycerol

B1: light-dependent protochlorophyllide oxidoreductase from Synechocystis (SynPOR) (enzyme, UniProt Q59987 1-322, looked up)
chain: MEQPMKPTVIITGASSGVGLYGAKALIDKGWHVIMACRNLDKTQKVADELGFPKDSYTIIKLDLGYLDSVRRFVAQFRELGRPLKALVCNAAVYFPLLDEPLWSADDYELSVATNHLGHFLLCNLLLEDLKACPDADKRLIILGTVTANSKELGGKIPIPAPPDLGNFEGFEAGFKKPIAMINNKKFKSGKAYKDSKLCNMLTTRELHRRFHQETGIVFNSLYPGCVADTPLFRNHYSLFRTIFPWFQKNVTKGYVSQELAGERVAMVVADDKFKDSGVHWSWGNRQQAGREAFVQELSEQGSDAQKAQRMWDLSEKLVGLV
notes: light-dependent protochlorophyllide oxidoreductase (SynPOR), Synechocystis, Uniprot Q59987; The reaction buffer holds 150 mM imidazole, so a His tag is likely (surmise); In the assay it stood with PG liposomes, pigment (Pchlide or Chlide) and NADP+ or NADPH; also called cyanobacterial LPOR; LPOR
B1: binds.

Reference: publication doi:10.1101/2024.03.08.584095, “LPOR and the membranes – evolutionary pathway towards prolamellar body formation” (bioRxiv, 2024)
